Measured values published in the Human Domainome abundance scans (Beltran et al. 2025).
± gives the uncertainty stated by the source.

B1: Cullin-9, residues 2234 to 2275; numbered along this chain, Q8IWT3 (parent)
chain: KRCPSCQAPIEKNEGCLHMTCAKCNHGFCWRCLKSWKPNHKD

Variants of: B1
Test: abundance fitness (aPCA) (normalised: wild type 0, dead -1); higher = more abundant; growth selection in yeast, the domain comes from the species named
Conditions: Homo sapiens

Abundance fitness, by site and new letter:
H26: Q -0.17 ± 0.11; T -0.226 ± 0.16; S 0.055 ± 0.12; L -0.419 ± 0.094; C -0.628 ± 0.15; D 0.063 ± 0.11; Y -0.1 ± 0.12; W -0.541 ± 0.14; V -0.266 ± 0.081; M -0.109 ± 0.12; E -0.091 ± 0.093; N -0.287 ± 0.16; P -0.154 ± 0.098; I -0.367 ± 0.2; F 0.146 ± 0.2; A -0.022 ± 0.089; G -0.02 ± 0.075; R -0.213 ± 0.078; K -0.314 ± 0.16
A22: W -0.096 ± 0.11; G -0.254 ± 0.11; Y 0.082 ± 0.21; E 0.029 ± 0.11; K -0.333 ± 0.17; P 0.149 ± 0.13; R -0.242 ± 0.1; M 0.082 ± 0.16; S -0.202 ± 0.12; L -0.282 ± 0.13; I -0.025 ± 0.14; D 0.229 ± 0.19; V -0.306 ± 0.12
E14: C -0.001 ± 0.13; A -0.001 ± 0.087; S -0.047 ± 0.1; Q -0.132 ± 0.13; M 0.121 ± 0.23; D -0.084 ± 0.16; N -0.219 ± 0.24; V -0.397 ± 0.092; G -0.071 ± 0.087; T -0.12 ± 0.15; F -0.492 ± 0.2; K -0.473 ± 0.17; R -0.369 ± 0.091; W -0.362 ± 0.14; P -0.011 ± 0.16; L -0.411 ± 0.12
C16: S 0.422 ± 0.083; Q 0.416 ± 0.091; P 0.161 ± 0.098; R 0.227 ± 0.073; A 0.329 ± 0.079; Y -0.032 ± 0.15; H 0.105 ± 0.14; I 0.444 ± 0.16; N 0.23 ± 0.13; E 0.507 ± 0.082; K 0.324 ± 0.099; W -0.121 ± 0.09; T 0.471 ± 0.11; L -0.115 ± 0.084; D 0.544 ± 0.092; G 0.55 ± 0.069; M 0.202 ± 0.11; V 0.449 ± 0.085; F -0.149 ± 0.15
T20: I 0.196 ± 0.16; L -0.099 ± 0.097; M -0.035 ± 0.12; P -0.103 ± 0.1; S -0.304 ± 0.097; R -0.143 ± 0.077; D -0.166 ± 0.14; F -0.462 ± 0.24; H -0.154 ± 0.15; W -0.172 ± 0.093; Y 0.316 ± 0.2; A -0.218 ± 0.085; Q -0.029 ± 0.1; G -0.288 ± 0.083; C -0.447 ± 0.13; E -0.306 ± 0.11
C29: A -0.76 ± 0.11; L -0.696 ± 0.1; F -1.53 ± 0.46; S -0.749 ± 0.12; Q -0.563 ± 0.12; E -0.432 ± 0.11; Y -0.847 ± 0.21; M -0.969 ± 0.22; G -0.737 ± 0.093; N -0.761 ± 0.39; V -0.969 ± 0.11; R -0.888 ± 0.096; H -0.532 ± 0.16; W -1.17 ± 0.17; K -0.632 ± 0.17
F28: T -0.219 ± 0.1; V -0.236 ± 0.096; D 0.101 ± 0.17; Y -0.049 ± 0.21; K -0.288 ± 0.11; E -0.074 ± 0.089; P 0.048 ± 0.12; Q 0.084 ± 0.11; N 0.135 ± 0.18; A -0.173 ± 0.084; M -0.39 ± 0.14; L -0.233 ± 0.1; W -0.255 ± 0.091; H 0.322 ± 0.16; C -0.189 ± 0.14
N25: D 0.087 ± 0.12; G 0.208 ± 0.077; S 0.03 ± 0.1; W -0.44 ± 0.12; A -0.127 ± 0.091; E -0.045 ± 0.087; M -0.06 ± 0.14; K -0.092 ± 0.14; T -0.106 ± 0.11; Q 0.082 ± 0.14; R -0.25 ± 0.081; F -0.242 ± 0.16; I -0.121 ± 0.22; C 0.126 ± 0.12; P -0.382 ± 0.12; V -0.265 ± 0.088
L17: S -0.186 ± 0.12; M -0.071 ± 0.13; N -0.858 ± 0.21; K -0.862 ± 0.17; W -0.169 ± 0.099; G -0.062 ± 0.075; T -0.236 ± 0.12; P -0.047 ± 0.12; Y 0.383 ± 0.29; A -0.053 ± 0.079; I -0.267 ± 0.2; C -0.209 ± 0.25; D -0.006 ± 0.14; R -0.614 ± 0.085
K23: D -0.239 ± 0.32; L -0.325 ± 0.092; I -0.437 ± 0.14; S -0.174 ± 0.1; N -0.184 ± 0.23; Q -0.454 ± 0.14; A -0.102 ± 0.085; F 0.02 ± 0.22; V -0.293 ± 0.091; P -0.695 ± 0.12; R -0.015 ± 0.077; M -0.323 ± 0.14; H -0.223 ± 0.19; G -0.262 ± 0.08; T -0.115 ± 0.1; E -0.209 ± 0.097
H18: C -0.425 ± 0.14; A -0.142 ± 0.083; W -0.329 ± 0.09; F -0.058 ± 0.29; T -0.438 ± 0.12; Y -0.503 ± 0.16; V -0.393 ± 0.099; D -0.274 ± 0.16; P -0.427 ± 0.098; G -0.216 ± 0.081; I -0.155 ± 0.19; E 0.019 ± 0.094; R -0.016 ± 0.073; L -0.104 ± 0.09; Q 0.106 ± 0.1; M 0.154 ± 0.1
C24: K -0.379 ± 0.13; D -0.045 ± 0.14; E -0.129 ± 0.088; W -0.784 ± 0.11; F -0.534 ± 0.21; M -0.574 ± 0.2; T -0.735 ± 0.19; H -0.382 ± 0.33; A -0.45 ± 0.094; S -0.384 ± 0.12; L -0.454 ± 0.093; G -0.268 ± 0.074; P -0.249 ± 0.1; R -0.594 ± 0.086
M19: G -0.22 ± 0.074; I -0.008 ± 0.19; D 0.046 ± 0.13; T 0.182 ± 0.11; A -0.048 ± 0.095; E -0.186 ± 0.1; P 0.012 ± 0.1; F -0.48 ± 0.22; H -0.405 ± 0.21; N -0.161 ± 0.18; R -0.28 ± 0.08; Y -0.803 ± 0.46; L -0.034 ± 0.092; S 0.016 ± 0.097; Q -0.019 ± 0.12; W -0.223 ± 0.1; C -0.012 ± 0.13; V 0.264 ± 0.076; K 0.003 ± 0.13
C21: E -0.137 ± 0.096; I -0.968 ± 0.25; W -0.823 ± 0.12; V -0.677 ± 0.095; R -0.866 ± 0.094; F -0.917 ± 0.33; N -0.462 ± 0.21; P -0.612 ± 0.12; Y -0.465 ± 0.2; Q -0.537 ± 0.12; M -0.962 ± 0.16; G -0.482 ± 0.078; D -0.239 ± 0.13; H -1.16 ± 0.29; K -0.489 ± 0.12
I10: N -0.534 ± 0.21; Q -0.231 ± 0.12; K -0.598 ± 0.16; P -0.536 ± 0.17; D -0.011 ± 0.09; A -0.193 ± 0.11; R -0.534 ± 0.089; E 0.059 ± 0.13; H -0.588 ± 0.18; T -0.083 ± 0.1; W -0.555 ± 0.1; S -0.233 ± 0.095; G -0.303 ± 0.081; V -0.138 ± 0.085
P9: M 0.056 ± 0.1; N -0.026 ± 0.26; V -0.277 ± 0.098; Y -0.265 ± 0.18; R -0.048 ± 0.087; T -0.107 ± 0.12; S -0.347 ± 0.095; W 0.335 ± 0.14; Q 0.014 ± 0.1
W30: I -0.258 ± 0.12; E 0.016 ± 0.11; M -0.223 ± 0.12; C -1.09 ± 0.24; G 0.162 ± 0.07; P 0.134 ± 0.11; D 0.019 ± 0.25; L -0.156 ± 0.083; H -0.069 ± 0.21; K -0.366 ± 0.15; F -0.162 ± 0.14
N13: V 0.051 ± 0.085; E -0.002 ± 0.1; W 0 ± 0.1; S -0.096 ± 0.1; M -0.023 ± 0.097; C -0.101 ± 0.15; D -0.209 ± 0.13; Y -0.244 ± 0.16; T 0.185 ± 0.1; H -0.165 ± 0.14; G -0.059 ± 0.07; P 0.183 ± 0.12; Q -0.044 ± 0.097; R -0.034 ± 0.075; F -0.36 ± 0.17; L 0.229 ± 0.092; K 0.117 ± 0.11; I 0.493 ± 0.18; A -0.071 ± 0.074
G15: P -0.259 ± 0.12; Q -0.777 ± 0.21; C -0.113 ± 0.33; A -0.003 ± 0.1; H -0.492 ± 0.17; K -0.294 ± 0.15; E 0.045 ± 0.097; L -0.515 ± 0.17; R -0.096 ± 0.092; M -0.576 ± 0.17; W -0.176 ± 0.1; T -0.698 ± 0.17; S -0.362 ± 0.11
G27: L -0.457 ± 0.099; P -0.129 ± 0.15; S 0.256 ± 0.097; D 0.193 ± 0.14; M -0.264 ± 0.18; K 0.075 ± 0.14; R 0.159 ± 0.074; A 0.194 ± 0.077; T 0.326 ± 0.11; I -0.083 ± 0.26; Y -0.425 ± 0.3; W -0.005 ± 0.11; E 0.708 ± 0.091; H 0.379 ± 0.14; C 0.036 ± 0.12; Q 0.439 ± 0.13
K12: H -0.151 ± 0.2; F -0.469 ± 0.38; I -0.492 ± 0.23; S -0.112 ± 0.085; L -0.201 ± 0.081; T -0.046 ± 0.095; M -0.22 ± 0.12; Q 0.008 ± 0.091; V -0.2 ± 0.089; P 0.057 ± 0.081; Y -0.152 ± 0.17; A 0.126 ± 0.081; G 0.268 ± 0.071; D -0.248 ± 0.12
E11: D -0.137 ± 0.2; A -0.185 ± 0.14; K -0.27 ± 0.12; P -0.309 ± 0.17; W -0.069 ± 0.14; C -0.487 ± 0.16; M -0.383 ± 0.13; H -0.138 ± 0.3; S -0.41 ± 0.12; T -0.159 ± 0.15; Y 0.319 ± 0.45; G -0.34 ± 0.079; L -0.318 ± 0.095; V -0.408 ± 0.1; Q -0.448 ± 0.33
